Source: patent US20220089755A1 (COMMISSARIAT A L ENERGIE ATOMIQUE ET AUX ENERGIES …, published 2022)

How the values were obtained:
[1] = target: T1, endothelin receptor subtype A (ETA-R) expressed on stably transfected CHO cells (CHO-ETAR) (UniProt P25101 21-427, limits assumed); assay: flow cytometry on CHO-ETAR cells, apparent Kd, one-site fit, with or without 100 nM ET1
T1 construct: whole, on cells; also called endothelin type A receptor
T1 sequence (looked up): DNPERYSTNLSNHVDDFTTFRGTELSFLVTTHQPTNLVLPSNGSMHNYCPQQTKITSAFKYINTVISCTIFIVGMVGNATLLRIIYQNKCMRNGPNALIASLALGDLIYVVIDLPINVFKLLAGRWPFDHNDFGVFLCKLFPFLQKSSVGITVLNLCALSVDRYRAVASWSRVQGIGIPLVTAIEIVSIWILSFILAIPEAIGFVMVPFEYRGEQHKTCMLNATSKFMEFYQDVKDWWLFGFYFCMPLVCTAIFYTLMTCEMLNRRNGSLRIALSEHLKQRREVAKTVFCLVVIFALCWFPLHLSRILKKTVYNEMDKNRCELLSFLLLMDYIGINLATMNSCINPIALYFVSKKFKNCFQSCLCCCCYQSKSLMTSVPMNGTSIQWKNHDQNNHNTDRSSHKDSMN
Experimental: The fluorescence is quantified by flow cytometry on an FACSCalibur™ (BD Bioscience). A range of concentrations of antibodies lying between, at a maximum, 1 μM and, at a minimum, […] was incubated for 2 hours at 4° C. in the presence or not of 100 nM ET1 (preincubated for 30 minutes at 4° C.). At 90% confluence, the cells are detached in the presence of versene and then aliquoted in tubes (300 μl/300,000 cells) in the presence of a saturation buffer (PBS-SNC 5%-BSA 0.1%) stored at 4° C. After three washes in PBS buffer, 300 μl of secondary antibody labeled with Alexa Fluor™ 488 (AF-488) diluted to 1/400 was added and incubated for 60 minutes at 4° C. (Goat anti-mouse IgG, Invitrogen-ref A10684). For each antibody concentration point, after three washes in PBS, 10,000 cells were counted with flow cytometry.
The data were analysed in the GraphPad Prism software and the curves modelled according to the parameter: a specific binding site. […] The binding of RA63 was therefore not modified in the presence of ET1.

[2] = target: T2, endothelin receptor subtype A (ETA-R) expressed on the surface of Gli-7 glioblastoma cells (human, UniProt P25101 21-427); assay: flow cytometry on Gli-7 glioblastoma cells
T2 construct: whole, on cells; also called ETA-R on Gli-7; ETAR on glioblastoma cells
T2 sequence (looked up): T1 sequence (looked up)

B1: Rendomab-A63 (antibody, mouse IgG2b, V domains shown)
VH: EVQLVESGGGLVQPKGSLKLSCAASGFTFNIYAMNWIRQAPGKGLEWIARIRSKSNNYATYYADSVKDRFTISRDDSQNMVYLQMNNLKTEDTAMYYCVSSYYSGSFFAYWGQGTLVTVSA
VL: DVLMTQTPLSLPVSLGDQASISCRSSQSIVYSNGKIYLEWYLQKPGQSPKLLIYKVSNRFSGVPDRFSGSGSGTDFTLKISRVEAEDLGVYYCFQGSHLPLTFGAGTKLELKR
notes: also called RA63; monoclonal murine antibody from the hybridoma CNCM I-5250
Work on B1 yielded a Kd [1] of ~0.5 nM and a Kd [2] of ~15 nM.
